Experimental data published in the supplement of paper PMC9170038.

Key:
[1] = test system: MS2 coat protein; assay: apparent KD of MS2 coat protein, switch OFF state (with FMN for OFF switches, without FMN for ON switches); designed switch direction (-1 OFF switch, 1 ON switch): 1; higher = weaker reporter binding; conditions: FMN input: 0 or 200 uM; Eterna round: R93 (includes R88 designs)
Summary of the method: (§1)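 Apparent KD stands for the median, per design, of fits to normalised cluster binding curves. The curves came from titrating on-chip-transcribed RNA switches on Illumina sequencing clusters with SNAP-549-labelled MS2 coat protein, twofold from 0.7 or 1.5 nM to 3 µM. Buffer was 100 mM Tris-HCl pH 7.5, 80 mM KCl, 4 mM MgCl2, without or with constant ligand.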

[2] = test system: MS2 coat protein; assay: apparent KD of MS2 coat protein, switch ON state; designed switch direction (-1 OFF switch, 1 ON switch): 1; higher = weaker reporter binding; conditions: FMN input: 0 or 200 uM; Eterna round: R93 (includes R88 designs)
Summary of the method: as §1

| Sequence | apparent KD of MS2 coat protein [1] [nM] | apparent KD of MS2 coat protein [2] [nM] |
| --- | --- | --- |
| AGGAGACAUGAGGAUCACCCAUGUGAGAAGAGGCGAGGAUAUCGAAAGAAAGAAGAGAAACGAGAAGGCGCGAGGC [salish99-SS1-031] | 23.5 | 27 |
| AGGAGACAUGAGGAUCACCCAUGUGCACGUGGACGAGGAUAUGCUAGUAGAAGAUAGAAUGCAGAAGGCGUAAGAA [Mod of JR] | 29.9 | 48.4 |
| AGUCCACAUGAGGAUCACCCAUGUCUGGAGAAGACAGGAUAUAAGGAAAAAAAAAAAAACUUAGAAGGGUCAAAAA [Bexeusisus] | 49.5 | 26.8 |
| AUAAAACAUGAGGAUCACCCAUGUAGACAUAUGGGAGGAUAUACUAGAUCGAAAGAUCUAGUAGAAGGCCUUUAUA [JL Mod of Eli 8] | 54.2 | 19.2 |
| AUAAAACAUGAGGAUCACCCAUGUGAAAACGUGGGAGGAUAUACGUAGACGAAAGUCGACGUAGAAGGCCUAAAAG [Same State 1.4n.1 (Mat - Mod of Eli - )] | 197 | 119 |
| AUAAAAGAAGCGAAGGAUAUCCAAAAACCAACAUGAGGAUCACCCAUGUAAAGAAAGAAAAAAUGGGAGAAGGUCGCAAAGAAUA [73%, More Fisker Same State 2, D3, 8] | 17.7 | 11.8 |
| AUAAAAGAAGCGAAGGAUAUCCAAAGAACCACAUGAGGAUCACCCAUGUAAAGAAAGAAAAAGUGGGAGAAGGUCGCAAAGAAUA [73%, More Fisker Same State 2, D3, 5] | 53.7 | 26.6 |
| AUAAAUAAAAUCGAGGAUAUCCAAAAAAAAACAUGAGGAUCACCCAUGUAAAAGAAAAUAAUAUGGGAGAAGGCGAAAAAUAAAU [SS2 M 5] | 59.2 | 36.8 |
| AUAAAUAAUGGUAAGGAUAUCCAAAAGAAAACAUGAGGAUCACCCAUGUAAAAGAAAAUAGUGUGGGAGAAGGUACCAUAUAAAU [SS2 M 15] | 41.6 | 18.6 |
| AUAACACAUGAGGAUCACCCAUGUAGAAACAAGUCAGGAUAUGCGACCUCAUGAAAUAAAGCAGAAGGGACACUAA [SS 1 Tesla 5] | 150 | 31.5 |
| AUAAGACAUGAGGAUCACCCAUGUAUUAGAGCAUGAGGAUAUAUGAAUAGUAAUAGGAGGAUAGAAGGCAUGGUUG [JR_SS001_Sub1218] | 138 | 92.6 |
| AUAAUAAUAAGAUAGGAUAUACUAAAGUAAACAUGAGGAUCACCCAUGUAAAGAAAAAAACUCAUGUAGAAGGGUCAUAAAUAAA [moonwalk 1] | 48.6 | 46.3 |
| AUAUAUAAAAGGUAGGAUAUUCUAAAAUAAACAUGAGGAUCACCCAUGUAAAAAAAGAAACUCAUGGAGAAGGACCAUAUAUAUA [ss2 6th modifying Eli's mod of Tesla] | 44.5 | 31.5 |
| AUAUAUAUAAGGUAGGAUAUCCAAUAAACCACAUGAGGAUCACCCAUGUAAAGAAAGAAAAAAUGGGAGAAGGACCAUAUAUAUA [77%, More Tesla, 6] | 27.5 | 15.4 |
| AUAUAUAUAAGGUAGGAUAUCCAAUAAUCCACAUGAGGAUCACCCAUGUAAAGAAAGAAAAAGUGGGAGAAGGACCAUAUAUAUA [77%, More Tesla, 7] | 34 | 17.6 |
| AUAUAUAUAAGGUAGGAUAUGCUAAAGUAAACAUGAGGAUCACCCAUGUAAAGAAAGAAACUCAUGUAGAAGGGCCAUAUAUAUA [viburnum 6] | 408 | 163 |
| AUAUGACAUGAGGAUCACCCAUGUAUUCGAGCAUGAGGAUAUAUGACUAGUCAUAGGAGGAUAGAAGGCAUGGUUG [JR_SS001_Sub1217] | 169 | 76.2 |
| AUAUGGGCCCAUCAGGAUAUGUUCGGCGGAACAUGAGGAUCACCCAUGUGACAAAAGACGCCCACGCAGAAGGGAUUACAGGCAA [Anistera] | 49.7 | 22 |
| AUGAUACAUGAGGAUCACCCAUGUCACCUCACACGAGGAUAUCUGUGCAGUACUCAGUACGGAGAAGGCGUGGAAA [Same State 1.2d (Same State of Confusion2 - KL)] | 78.1 | 20.2 |
| AUGGUCAAGUGUGAGGAUAUCCAUGCUCCCACAUGAGGAUCACCCAUGUCUUAAAGGGCGUAAAGGGAGAAGGUACGAACGCCAC [Edatxein] | 78.3 | 40.7 |
| AUUAGACAUGAGGAUCACCCAUGUAGGCAGUCAUGAGGAUAUGGACAAGGUGCUCAAGGUCCAGAAGGCAUACGCC [Maxeus] | 57.6 | 14.8 |
| AUUUAACAUGAGGAUCACCCAUGUAGGAAUACUGCAGGAUAUCGACACGAAAAUACGUGUCGAGAAGGGCAUGAAA [SS1 MT 25] | 22 | 13.8 |
| CAGGACCUAGGAUAGGAUAUAUGAAUAAUUACAUGAGGAUCACCCAUGUCCAUUUAUAUGGGAACAUAGAAGGGUUCUGGUUAUG [Mat - Same state - Malcolm Mod - D134] | 50.3 | 20.8 |
| CAUCAACAUGAGGAUCACCCAUGUCAUUGAUGUCAAGGAUAUGGGAGACAUAAAAUUCUUCUAGAAGGUGAAAGAU [Mainuson] | 176 | 636 |
| CGAAAGGAGAGAGAGGAUAUCCAAAGGAAAACAUGAGGAUCACCCAUGUAGAAGGUAGGAGAUUGGGAGAAGGCUCAAGAAAGAG [salish99-ss2-144] | 27.5 | 23 |
| CGAAGACAUGAGGAUCACCCAUGUGGGAUUAUGGGAGGAUAUACAAAGACGAGAGUCAGAGUAGAAGGCCUAGGAG [salish99-ss1-126(!)] | 47.1 | 28.7 |
| CGAGAACAUGAGGAUCACCCAUGUAAUGAAUGGUCAGGAUAUGGAGAUAGAUGACAAGCGCCAGAAGGGACAUCAG [JR_SS001_Sub1001] | 53.9 | 42.9 |
| CGCGAACAUGAGGAUCACCCAUGUAAAUCGCAUGUAGGAUAUGGGAAACACAUUAAGAUCCCAGAAGGGCGGAAAA [Anquve] | 31.2 | 41.3 |
| CGCGAACAUGAGGAUCACCCAUGUGAAAAACAUAGAGGAUAUGUCGCAUGCGUGUAAAAGACAGAAGGCUAUCGCG [Normal (21/22)] | 72.5 | 22.8 |
